Consider five molecules from patent US20120219559A1 (Johns Hopkins, published 2012).

For assay [1], the target named is human B7-H2, full length, expressed on cells (B7-H2+293T cells) (human) (UniProt O75144). The experiment in a line: cell-based or functional assay.
Assay [2] concerns the target T1, mouse CTLA-4Ig fusion protein (mouse, UniProt P09793 36-162).
T1 construct: Bought from R&D Systems; Ig (Fc) part not given
Put plainly: CDS well image, 293T cells transfected with the mouse gene, stained with the mouse fusion protein.

The target in a further assay is T2, B7-H2Ig (Mus musculus, UniProt Q9JHJ8).
T2 construct: Ig fusion protein purchased from R&D systems; also called mouse B7-H2Ig fusion protein
T2 sequence (fusion protein, looked up): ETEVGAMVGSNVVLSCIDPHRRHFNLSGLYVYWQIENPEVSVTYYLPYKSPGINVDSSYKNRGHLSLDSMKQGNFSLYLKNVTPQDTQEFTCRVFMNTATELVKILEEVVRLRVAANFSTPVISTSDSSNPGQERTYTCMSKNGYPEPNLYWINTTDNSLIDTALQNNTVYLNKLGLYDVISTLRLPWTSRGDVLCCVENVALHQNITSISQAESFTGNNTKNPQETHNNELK
Described as above.

A further assay has as its target T3, B7-DCIg (Mus musculus, UniProt Q9WUL5).
T3 construct: Ig fusion protein purchased from R&D systems; also called mouse B7-DCIg fusion protein
T3 sequence (fusion protein, looked up): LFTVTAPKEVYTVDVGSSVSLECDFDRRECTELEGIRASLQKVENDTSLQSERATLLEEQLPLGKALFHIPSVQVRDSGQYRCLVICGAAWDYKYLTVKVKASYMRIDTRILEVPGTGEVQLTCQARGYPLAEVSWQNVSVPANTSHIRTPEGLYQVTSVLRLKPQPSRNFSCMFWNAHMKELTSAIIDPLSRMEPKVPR
The assay is described as above.

The next assay deals with T4, ICOSIg (Mus musculus, UniProt Q9WVS0).
T4 construct: Ig fusion protein purchased from R&D systems; also called mouse ICOSIg fusion protein
T4 sequence (fusion protein, looked up): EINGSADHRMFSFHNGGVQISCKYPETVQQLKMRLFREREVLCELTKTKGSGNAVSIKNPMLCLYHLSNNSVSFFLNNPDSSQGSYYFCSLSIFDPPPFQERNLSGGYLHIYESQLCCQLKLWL
The assay is described as above.

For assay [3], the target named is T5, mouse CD28Ig fusion protein (mouse, UniProt P31041 20-149).
T5 construct: Bought from R&D Systems; Ig (Fc) part not given
T5 sequence (looked up): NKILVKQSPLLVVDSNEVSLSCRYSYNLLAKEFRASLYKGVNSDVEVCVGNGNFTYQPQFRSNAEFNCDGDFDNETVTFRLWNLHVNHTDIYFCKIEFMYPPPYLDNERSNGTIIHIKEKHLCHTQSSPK
Described as above.

For another assay, the target named is T6, PD-1Ig (Mus musculus, UniProt Q02242).
T6 construct: Ig fusion protein purchased from R&D systems; also called mouse PD-1Ig fusion protein
T6 sequence (fusion protein, looked up): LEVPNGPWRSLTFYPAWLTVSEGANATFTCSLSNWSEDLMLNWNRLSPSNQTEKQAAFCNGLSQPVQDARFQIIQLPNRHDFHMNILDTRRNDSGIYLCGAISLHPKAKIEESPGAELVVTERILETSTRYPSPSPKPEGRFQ
The assay is described as above.

The next assay has as its target T7, B7-H1Ig (Mus musculus, UniProt Q9EP73).
T7 construct: Ig fusion protein purchased from R&D systems; also called mouse B7-H1Ig fusion protein
The description is as above.

Assay [4] concerns the target T8, human B7-H1 expressed on 293T cells (human, UniProt Q9NZQ7 19-290).
T8 construct: whole, on cells
Put plainly: CDS well image, 293T cells transfected with the human gene, stained with the human fusion protein.

The target of assay [5] is T9, human B7-H2, full length, expressed on cells (B7-H2+293T cells) (human, UniProt O75144 19-302).
T9 construct: This id also stands for endogenous B7-H2 on monocyte-derived dendritic cells in the functional rows; also called ICOSL; ICOSLG
T9 sequence: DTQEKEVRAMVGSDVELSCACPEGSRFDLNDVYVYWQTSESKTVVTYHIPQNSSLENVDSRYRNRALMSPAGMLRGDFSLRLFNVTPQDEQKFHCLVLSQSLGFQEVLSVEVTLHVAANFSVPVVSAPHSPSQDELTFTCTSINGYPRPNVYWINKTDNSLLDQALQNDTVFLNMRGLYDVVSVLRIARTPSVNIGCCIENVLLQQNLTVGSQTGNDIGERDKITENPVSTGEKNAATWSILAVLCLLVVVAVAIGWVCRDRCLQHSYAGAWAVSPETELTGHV
Described as above.

The target in assay [6] is T10, human B7-2 (CD86, B70) expressed on 293T cells (human, UniProt P42081 24-329).
T10 construct: whole, on cells
T10 sequence (looked up): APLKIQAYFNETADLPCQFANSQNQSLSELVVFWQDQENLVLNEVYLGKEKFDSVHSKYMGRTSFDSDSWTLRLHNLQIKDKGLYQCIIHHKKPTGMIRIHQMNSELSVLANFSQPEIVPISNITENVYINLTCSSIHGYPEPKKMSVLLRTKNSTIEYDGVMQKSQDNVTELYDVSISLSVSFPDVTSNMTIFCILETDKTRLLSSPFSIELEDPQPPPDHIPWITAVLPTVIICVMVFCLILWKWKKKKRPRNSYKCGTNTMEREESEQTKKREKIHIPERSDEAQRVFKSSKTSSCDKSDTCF
The description is as above.

Assay [7] concerns the target T11, human CD28, full length, expressed on cells (CD28+293T cells) (human, UniProt P10747 19-220).
T11 construct: This id also stands for CD28 on purified human T cells in the functional rows; also called CD28+ cells
The assay is described as above.

The target in assay [8] is T12, human B7-1 (CD80) expressed on 293T cells (human, UniProt P33681 35-288).
T12 construct: whole, on cells
T12 sequence (looked up): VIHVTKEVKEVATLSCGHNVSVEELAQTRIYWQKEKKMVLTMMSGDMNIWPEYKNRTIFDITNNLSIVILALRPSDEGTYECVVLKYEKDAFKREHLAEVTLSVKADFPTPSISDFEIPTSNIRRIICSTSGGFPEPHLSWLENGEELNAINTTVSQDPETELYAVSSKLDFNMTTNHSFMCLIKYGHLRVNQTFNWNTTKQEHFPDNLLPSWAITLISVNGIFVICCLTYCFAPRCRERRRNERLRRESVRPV
Described as above.

For assay [9], the target named is T13, human B7-DC expressed on 293T cells (human, UniProt Q9BQ51 20-273).
T13 construct: whole, on cells
T13 sequence (looked up): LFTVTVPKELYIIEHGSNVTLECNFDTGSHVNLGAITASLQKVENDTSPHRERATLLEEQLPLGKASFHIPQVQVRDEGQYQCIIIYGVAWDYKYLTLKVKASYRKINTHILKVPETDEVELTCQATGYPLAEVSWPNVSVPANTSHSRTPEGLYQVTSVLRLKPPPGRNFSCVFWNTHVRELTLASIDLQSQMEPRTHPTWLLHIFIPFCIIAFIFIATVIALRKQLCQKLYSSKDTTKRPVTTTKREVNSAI
The description is as above.

T7 sequence (Q9EP73 19-238 limits assumed): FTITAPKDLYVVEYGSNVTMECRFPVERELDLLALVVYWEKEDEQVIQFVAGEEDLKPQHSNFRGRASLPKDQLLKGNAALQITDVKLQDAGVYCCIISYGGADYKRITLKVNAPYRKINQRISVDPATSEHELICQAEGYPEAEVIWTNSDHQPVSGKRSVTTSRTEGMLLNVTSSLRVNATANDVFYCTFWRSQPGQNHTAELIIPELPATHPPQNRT
T11 sequence (P10747 19-220): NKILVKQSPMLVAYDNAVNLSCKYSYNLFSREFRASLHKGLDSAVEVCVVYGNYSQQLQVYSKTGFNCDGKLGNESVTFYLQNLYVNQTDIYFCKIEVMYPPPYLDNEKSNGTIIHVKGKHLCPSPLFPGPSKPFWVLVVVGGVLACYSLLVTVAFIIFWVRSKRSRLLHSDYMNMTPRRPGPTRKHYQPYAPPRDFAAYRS
T8 sequence (Q9NZQ7 19-290): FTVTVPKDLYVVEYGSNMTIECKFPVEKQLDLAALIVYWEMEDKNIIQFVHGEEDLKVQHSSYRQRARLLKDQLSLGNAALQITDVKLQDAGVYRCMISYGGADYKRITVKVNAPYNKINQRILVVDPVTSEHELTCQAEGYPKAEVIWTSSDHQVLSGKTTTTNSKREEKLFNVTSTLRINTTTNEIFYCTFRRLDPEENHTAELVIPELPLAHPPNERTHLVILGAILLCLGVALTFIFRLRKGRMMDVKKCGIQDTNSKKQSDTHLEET

Consider “mouse anti-human B7-H2 mAb 9F.8A4 (antibody)”, for which, in assay [1], the tetanus toxoid-elicited IFNγ production of memory T cells; inhibition was over 90% and the tetanus toxoid-elicited proliferation of memory T cells; inhibition was over 50%.

B1: B7-2 (ligand)
chain: VSVETQAYFNGTAYLPCPFTKAQNISLSELVVFWQDQQKLVLYEHYLGTEKLDSVNAKYLGRTSFDRNNWTLRLHNVQIKDMGSYDCFIQKKPPTGSIILQQTLTELSVIANFSEPEIKLAQNVTGNSGINLTCTSKQGHPKPKKMYFLITNSTNEYGDNMQISQDNVTELFSISNSLSLSFPDGVWHMTVVCVLETESMKISSKPLNFTQEFPSPQTYWKEITASVTVALLLVMLLIIVCHKKPNQPSRPSNTASKLERDSNADRETINLKELEPQIASAKPNAE
Regarding B1, the binding result in assay [2] is “binds”; with B7-H2Ig it was “no binding”; with B7-DCIg, “no binding”; with ICOSIg it was “no binding”; in assay [3], “binds”; with PD-1Ig, “no binding”. Besides, in the assay with B7-H1Ig, the binding result was “no binding”.

B2: B7-DC (ligand, Mus musculus, UniProt Q9WUL5 20-247, looked up)
membrane protein: LFTVTAPKEVYTVDVGSSVSLECDFDRRECTELEGIRASLQKVENDTSLQSERATLLEEQLPLGKALFHIPSVQVRDSGQYRCLVICGAAWDYKYLTVKVKASYMRIDTRILEVPGTGEVQLTCQARGYPLAEVSWQNVSVPANTSHIRTPEGLYQVTSVLRLKPQPSRNFSCMFWNAHMKELTSAIIDPLSRMEPKVPRTWPLHVFIPACTIALIFLAIVIIQRKRI
On to B2, for which, in the assay with B7-H2Ig, the binding result is reported as “no binding”.

B3: B7-DCIg (Fc fusion, Homo sapiens, UniProt Q9BQ51 20-219, looked up)
fusion protein: LFTVTVPKELYIIEHGSNVTLECNFDTGSHVNLGAITASLQKVENDTSPHRERATLLEEQLPLGKASFHIPQVQVRDEGQYQCIIIYGVAWDYKYLTLKVKASYRKINTHILKVPETDEVELTCQATGYPLAEVSWPNVSVPANTSHSRTPEGLYQVTSVLRLKPPPGRNFSCVFWNTHVRELTLASIDLQSQMEPRTHP
notes: Ig fusion protein purchased from R&D systems; also called human B7-DCIg fusion protein
On to B3, for which the binding result in assay [4], in assay [5], in [6], in assay [7], in [8] and in assay [9] was “no binding” throughout.

B4: B7-1 (ligand)
chain: VDEQLSKSVKDKVLLPCRYNSPHEDESEDRIYWQKHDKVVLSVIAGKLKVWPEYKNRTLYDNTTYSLIILGLVLSDRGTYSCVVQKKERGTYEVKHLALVKLSIKADFSTPNITESGNPSADTKRITCFASGGFPKPRFSWLENGRELPGINTTISQDPESELYTISSQLDFNTTRNHTIKCLIKYGDAHVSEDFTWEKPPEDPPDSKNTLVLFGAGFGAVITVVVIVVIIKCFCKHRSCFRRNEASRETNNSLTFGPEEALAEQTVFL
Turning to B4, the binding result in [2] is on record as “binds”; with B7-H2Ig, “no binding”; in the assay with B7-DCIg, “no binding”; in the assay with ICOSIg it was “no binding”; in assay [3], “binds”; with PD-1Ig it was “no binding”. For the same molecule, the binding result with B7-H1Ig is listed as “binds”.
